The source of these data is patent publication US20170002074A1.

For assay [1], the target named is Full-length huCD33 membrane construct with single mutation S115A (human) (UniProt P20138). Description: FACS with APC-labelled isotype control on 293AD cells transiently expressing huCD33 S115A.
The target in assay [2] is Construct-88B: CD33 Ig-like V (M17-V136 including spacer H137-H143) linked to an irrelevant Ig-like C (including TM/CD) (human). As to the kind of experiment: FACS on 293 cells transiently transfected with construct 88B, control antibody.
Assay [3] concerns the target Construct-88: irrelevant Ig-like V linked to a CD33 Ig-like C (R144-Q228 including TM/CD L229) (human). Description: FACS on 293 cells transiently transfected with construct 88, control antibody.
For assay [4], the target named is Full-length huCD33 membrane construct with single mutation S115A (human) (UniProt P20138). As to the kind of experiment: FACS with Dylight 650 labelled isotype control on 293AD cells transiently expressing huCD33 S115A.
For assay [5], the target named is huCD33 R69G variant (human) (UniProt P20138). As to the kind of experiment: FACS, control antibody, on 293AD cells labelled 'SNPG69R', taken as the SNP variant of paragraph 650.
Assay [6] concerns the target Human CD33 (human) (UniProt P20138). Description: FACS on 293-hCD33 cells, isotype control of the competition experiment.
Assay [7] concerns the target Full-length huCD33 membrane construct with double mutation S102A/S115A (human) (UniProt P20138). As to the kind of experiment: FACS with WM53-APC (BD-Bioscience) on 293AD cells transiently expressing huCD33 S102A/S115A.
Assay [8] concerns the target Human CD33 (human) (UniProt P20138). Description: FACS with WM53-APC (BD-Bioscience) on HEK293AD cells stably expressing rhCD33 (positive control stain).
For assay [9], the target named is Full-length huCD33 membrane construct with single mutation S115A (human) (UniProt P20138). As to the kind of experiment: FACS with WM53-APC (BD-Bioscience) on 293AD cells transiently expressing huCD33 S115A.

Full-length huCD33 membrane construct with single mutation S115A (human), sequence (P20138 18-364 S115A): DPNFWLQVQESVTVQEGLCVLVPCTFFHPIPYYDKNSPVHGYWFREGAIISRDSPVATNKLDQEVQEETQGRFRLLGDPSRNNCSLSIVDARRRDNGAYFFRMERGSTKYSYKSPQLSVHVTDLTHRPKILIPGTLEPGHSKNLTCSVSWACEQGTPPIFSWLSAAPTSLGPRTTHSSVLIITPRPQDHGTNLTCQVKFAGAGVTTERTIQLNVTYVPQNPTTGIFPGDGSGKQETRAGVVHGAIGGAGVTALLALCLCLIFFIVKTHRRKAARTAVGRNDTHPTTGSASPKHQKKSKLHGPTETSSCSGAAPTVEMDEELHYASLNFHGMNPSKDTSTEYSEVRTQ
huCD33 R69G variant (human), sequence (P20138 18-364 R69G): as the sequence (P20138 18-364 S115A) above, with R52G, A98S counted along it
Human CD33 (human), sequence (P20138 18-364): as the sequence (P20138 18-364 S115A) above, with A98S counted along it
Construct-88: irrelevant Ig-like V linked to a CD33 Ig-like C (R144-Q228 including TM/CD L229) (human), sequence (P20138 144-364): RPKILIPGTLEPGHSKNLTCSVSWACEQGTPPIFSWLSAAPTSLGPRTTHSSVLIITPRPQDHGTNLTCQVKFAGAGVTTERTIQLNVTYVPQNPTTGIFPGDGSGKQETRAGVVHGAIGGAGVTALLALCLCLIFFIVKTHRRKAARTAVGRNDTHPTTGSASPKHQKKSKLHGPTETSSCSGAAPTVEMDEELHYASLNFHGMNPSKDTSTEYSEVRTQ
Full-length huCD33 membrane construct with double mutation S102A/S115A (human), sequence (P20138 18-364 S102A/S115A): as the sequence (P20138 18-364 S115A) above, with S85A counted along it
Construct-88B: CD33 Ig-like V (M17-V136 including spacer H137-H143) linked to an irrelevant Ig-like C (including TM/CD) (human), sequence (chain, as listed by the source limits assumed, form in doubt): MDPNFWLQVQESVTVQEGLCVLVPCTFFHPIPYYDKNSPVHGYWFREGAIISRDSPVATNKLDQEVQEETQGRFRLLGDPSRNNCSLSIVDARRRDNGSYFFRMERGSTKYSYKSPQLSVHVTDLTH

Take Iso-APC (antibody): the Geom. Mean:FL4-H in [1] amounted to 2.52.
For the substance hgD-650 (antibody), the Geom. Mean:FL4-H in assay [2] worked out at 16.7; in [3], 13.9.
In [4], Iso-650 (antibody) yielded a Geom. Mean:FL4-H of 8.67.
As for mIgG1 (antibody), the Geom. Mean:FL1-H in assay [5] worked out at 5.78.
For Isotype (antibody), the Geom. Mean:FL1 with Human CD33 (human) [6] is 3.58.
WM53 (antibody): the figures for the Geom. Mean:FL4-H (in assay [7]; in the assay with Human CD33 (human) [8]; in assay [9]) were 500, 1280 and 609, respectively.
For gD (antibody), the Geom. Mean:FL1-H in [5] turned out to be 5.83.
